These results are taken from patent US20260150817A1 (LEVERAGEN, published 2026).

Assay [1] deals with T1, SARS-Cov2 Spike Active Trimer SAT (R&D Systems; Catalog No. 10549-CV) (SARS-CoV-2, UniProt P0DTC2 16-1211).
Assay [2] addresses T1, SARS-Cov2 Spike Active Trimer SAT (R&D …). This is another data set of the same source.
Assay [3] shares this target. As to the kind of experiment: SPR (Carterra).
Assay [4] shares this target. The assay can be described thus: ELISA, serially diluted purified Nb-Fc against SAT antigen.

Where two headings read alike, the source gives them in different places.

B1: M320_5 Nb-Fc (Fc fusion)
chain: EVQLQQSGPELVKPGASVKMSCKASGYTFTDYYIKWEKQSHGKSLEWIGDINPKNGETFYNQQFKGKATLTVDKSSSTAYMQLNSLTSEDSAVYYCARKEYGDYGYAVDYWGQGTSVTVSS
notes: also called LVGN-S3205
Take B1: in assay [1], the dissociation constant Kd was found to be 1.21 nM. In assay [2], the equilibrium dissociation constant (Kd) was found to be 1.06 nM, the koff came out at 0.000143 s⁻¹ and the kon amounted to 135000 M⁻¹ s⁻¹. Also, the Kd in assay [3] was 3.17 nM. This molecule also had an EC50 in assay [4] of 0.024 nM.

B2: M2S320_377 Nb-Fc (Fc fusion)
chain: EVQLQQSGPELVKPGASVKMSCKASGYTFTDYYVKWKKQSHGKSLEWIGDINPNNGDTFYNQKFKDKATLTVDKSSSTAYMQLNSLTSEDSAVYYCARKEYGNFGYAVDYWGQGTSVTVSS
notes: also called LVGN-S320377
In assay [4], B2 displayed a 50% effective concentration (EC50) of 0.097 nM.

B3: M2S320_75 Nb-Fc (Fc fusion)
chain: EVQLQQSGPELVKPGASVKMSCKASGYTFTDYYMKWLKQNHGKSLEWIGDINPNNGDTFYNQKFKGKATLTVDTSSSTAYMQLNSLTSEDSAVYYCARKEYGDYGYATDYWGQGTSVTVSS
notes: also called LVGN-S32075
The molecule B3 had an EC50 in assay [4] of 0.068 nM.

B4: M2S521_623 Nb-Fc (Fc fusion)
chain: EVQLQQSGPELVKPGASVKISCKASGYTFTDYYMKWEKQSHGKSLEWIGDINPNNGGTRYNQKFRGKATLTVDKSSSTAYMELRSLTSEDSAVYYCARLEDDYYGYAVDYWGQGTSVTVSS
notes: also called LVGN-S521623
In turn, B4 yielded a concentration giving a half-maximal response (EC50) in assay [4] of 0.054 nM. This EC50 and that of the molecule before are within 1.5-fold of each other.

B5: M2S521_193 Nb-Fc (Fc fusion)
chain: EVQLQQSGPELVKPGASVKISCKASGYTFTDYYMKWVKQSHGKSLEWIGDINPNNGGARYNQKFKGRATLTVDKSSSTAYMELRSLTSEDSAVYYCSRLEDGYYGYAVDYWGQGTSVTVSS
notes: also called LVGN-S521193
Turning to B5, the concentration for a half-maximal effect (EC50) in assay [4] was determined as 0.085 nM.

B6: M2S521_378 Nb-Fc (Fc fusion)
chain: EVQLQQSGPELVKPGASVKISCKASGYTFTDYYMKWVKQSHGKSLEWIGDINPKNGGTNYNQKFKDKATLTVDKSSSTAYMELRSLTSEDSAVYYCARLEDGYYGYAIDYWSQGTSVTVSS
notes: also called LVGN-S521378
Turning to B6, in assay [4], the EC50 was determined as 0.081 nM.

B7: MS521_35 Nb-Fc (Fc fusion)
chain: EVQLQQSGPELVKPGASVKISCKASGYTFTDYYMKWVKQRHGQSLEWIGNINPTNGDTNYSQNFKGKATLTVDKSSTTAYMELRSLTSEDSAVYYCARLEDGYYGYAVDYWGQGTSVTVSS
notes: also called LVGN-S52135
The molecule B7 gave a Kd in assay [1] of 9.09 nM. In assay [2], this molecule returned a koff of 0.000685 s⁻¹ and a kon of 75300 M⁻¹ s⁻¹. In addition, the Kd in assay [3] worked out at 5.3 nM. Also, in assay [4], the EC50 turned out to be 0.024 nM.

B8: M2S521_72 Nb-Fc (Fc fusion)
chain: EVQLQQSGPELVKPGASVKISCKASGYTFTDYYMKWAKQSHGKSLEWIGHINPVNGDTSYNQKFKGKATLTVDKSSSTVYMELRSLTSEDSAVYYCARLEDGYYGYTMDYWGQGTSVTVSS
notes: also called LVGN-S52172
For the molecule B8, the EC50 in assay [4] is 0.063 nM.
